The experiment relates to Nav1.6. Put plainly: Patch-clamp recording of VGSC current in HEK (Nav1.6) cells. The format is cell-based, human.

The values that follow come from patent publication US20260240820A1, “METHOD FOR CONTROLLING MEMBRANE POTENTIAL-DEPENDENT ION CHANNEL THROUGH TYPE I TASTE RECEPTORS (T1RS)” (ION CHAT RESEARCH CORPORATE, priority 2022, published 2026).

Entries after “also recorded” stand apart in the source; their conditions may differ. Read-outs that look alike come from different tables or passages of the source.

B1: Thaumatin: sweet-tasting protein binding to the CRD of T1R3 (protein)
chain: ATFEIVNRCSYTVWAAASKGDAALDAGGRQLNSGESWTINVEPGTNGGKIWARTDCYFDDSGSGICKTGDCGGLLRCKRFGRPPTTLAEFSLNQYGKDYIDISNIKGFNVPMDFSPTTRGCRGVRCAADIVGQCPAKLKAPGGGCNDACTVFQTSEYCCTTGKCGPTEYSRFFKRLCPDAFSYVLDKPTTVTCPGSSNYRVTFCPTA
Consider B1, for which the “Effect on VGSC current, alone” value is “amplified VGSC currents similarly to Aβ1-42”. For the same molecule, for the setting “listed as thaumatin”, the “Effect on VGSC current when applied after Aβ1-42” value was “further amplification of VGSC currents was not observed; also recorded: no further amplification” and the “Effect on VGSC current, alone” value is recorded as “similarly amplified VGSC currents as Aβ1-42”.
